Assay results published in US20180216133A1.

Experiments:
[1] = molecular target: AAV3B capsid (vector AAV2/3B.CB7.CI.ffluciferase.RBG) (adeno-associated virus 3B); test: AVB Sepharose HiTrap column, unbound vector in flow-through; real-time PCR
[2] = molecular target: AAV3B-NKDKLN capsid mutant (SPAKFA→NKDKLN) (adeno-associated virus 3B (engineered)); test: as above
[3] = molecular target: AAVrh64R1 capsid (vector) (adeno-associated virus rh.64R1); test: AVB Sepharose HiTrap column, purified vector mix AAVrh64R1+AAVrh10; genome copies per fraction by real-time PCR
[4] = molecular target: AAV3B capsid (vector AAV2/3B.CB7.CI.ffluciferase.RBG) (adeno-associated virus 3B); test: AVB Sepharose HiTrap column, DPBS wash fraction; real-time PCR
[5] = molecular target: AAV3B-NKDKLN capsid mutant (SPAKFA→NKDKLN) (adeno-associated virus 3B (engineered)); test: as above
[6] = molecular target: AAV3B capsid (vector AAV2/3B.CB7.CI.ffluciferase.RBG) (adeno-associated virus 3B); test: AVB Sepharose HiTrap column, clarified AAV3B product; genome copies per fraction by real-time PCR
[7] = molecular target: AAV9 capsid (vector, CB7.CI.ffluciferase.RBG) (adeno-associated virus 9); test: AVB Sepharose HiTrap column, clarified culture supernatant, wild type vs SPAKFA mutant head-to-head; real-time PCR
[8] = molecular target: AAV8 capsid (vector) (adeno-associated virus 8); test: as above
[9] = molecular target: AAVrh64R1 capsid (vector) (adeno-associated virus rh.64R1); test: as above
[10] = molecular target: rh.64R1-SPAKFA capsid mutant (NQAKLN→SPAKFA) (adeno-associated virus rh.64R1 (engineered)); test: as above
[11] = molecular target: AAV8-SPAKFA capsid mutant (NQSKLN→SPAKFA) (adeno-associated virus 8 (engineered)); test: as above
[12] = molecular target: AAV9-SPAKFA capsid mutant (NKDKLN→SPAKFA) (adeno-associated virus 9 (engineered)); test: as above
[13] = molecular target: AAV3B capsid (vector AAV2/3B.CB7.CI.ffluciferase.RBG) (adeno-associated virus 3B); test: AVB Sepharose HiTrap column, clarified culture supernatant, AAV3B vs AAV3B-NKDKLN head-to-head; real-time PCR
[14] = molecular target: AAV3B-NKDKLN capsid mutant (SPAKFA→NKDKLN) (adeno-associated virus 3B (engineered)); test: as above
[15] = molecular target: AAVrh10 capsid (vector AAV2/AAVrh10.CMV.PI.Cre.RBG) (adeno-associated virus rh10); test: AVB Sepharose HiTrap column, purified vector mixes; genome copies per fraction by real-time PCR (average of two runs)
[16] = molecular target: AAV3B capsid (vector AAV2/3B.CB7.CI.ffluciferase.RBG) (adeno-associated virus 3B); test: AVB Sepharose HiTrap column, AVB.C (1 M NaCl) wash fraction; real-time PCR
[17] = molecular target: AAV3B-NKDKLN capsid mutant (SPAKFA→NKDKLN) (adeno-associated virus 3B (engineered)); test: as above
[18] = molecular target: AAV8 capsid (vector) (adeno-associated virus 8); test: AVB Sepharose HiTrap column, purified vector mix AAV8+AAVhu37+AAVrh10; genome copies per fraction by real-time PCR
[19] = molecular target: AAVhu37 capsid (vector AAV2/AAVhu37.TBG.EGFP.bGH) (adeno-associated virus hu37); test: as above

Work on “AVB Sepharose High Performance affinity resin ligand: 14kD fragment from a single chain llama antibody expressed in yeast (VHH)” yielded a percent of vector genomes in flow-through (FT) fraction [1] of 1.3%, a percent of vector genomes in flow-through (FT) fraction [2] of 8.2% and a percent of loaded vector genome in the elution fraction [3] of 22%. For the same substance, the percent of vector genomes in wash 1 (W1) fraction [4] was 0%, the percent of vector genomes in wash 1 (W1) fraction [5] was 0.1% and the percent of vector genomes recovered in the elution fraction [6] was 98%. It also gave a percent recovery of loaded vector in the elution fraction (of total fractions) [7] of 0.6%, a percent recovery of loaded vector in the elution fraction (of total fractions) [8] of 30% and a percent recovery of loaded vector in the elution fraction (of total fractions) [9] of 18%. For the same substance, the percent recovery of loaded vector in the elution fraction (of total fractions) [10] was 91%, the percent recovery of loaded vector in the elution fraction (of total fractions) [11] was 93% and the percent recovery of loaded vector in the elution fraction (of total fractions) [12] was 51%. It also gave an elution fraction yield [13] of 98%, an elution fraction yield [14] of 87% and a percent of loaded vector genome in the elution fraction [15] of 84%. It also gave a percent of vector genomes in wash 2 (W2) fraction [16] of 0.3%, a percent of vector genomes in wash 2 (W2) fraction [17] of 4.6% and a percent of loaded vector genome in the elution fraction [18] of 20%. The percent of loaded vector genome in the elution fraction [19] was 82%.
